According to paper PMC7020254:

What was measured:
[1] = tested on: P00451; test: AUC; sedimentation velocity, 105,000 g, 20 C, A280; Helixate in its therapeutic formulation buffer; c(s) 0-200 S; aggregates integrated 15-100 S
[2] = tested on: P00451; test: AUC; sedimentation velocity, 105,000 g, 20 C, A280; Helixate exchanged into HBS/Ca/PS-80 and immediately run; c(s) 0-200 S; aggregates integrated 12-100 S
[3] = tested on: P00451; test: AUC; sedimentation velocity, 105,000 g, 20 C, A280; Helixate desalted into HBS/Ca/PS-80, treated 10 min with 80 uM ClO- or control buffer, exchanged into HBS/Ca/PS-80; c(s) 0-100 S; aggregates 12-100 S relative to 5-100 S
[4] = tested on: P00451; test: AUC; sedimentation velocity, 105,000 g, 20 C, A280; Helixate in 2x formulation buffer treated with 80 uM ClO- or control buffer, then buffer exchange on a desalting column; c(s) 0-100 S; aggregates 12-100 S relative to 5-100 S

| Substance | percent of signal in aggregates (15-100 S) [1] | percent of signal in aggregates (12-100 S) [2] | percent of signal in aggregates (12-100 S relative to 5-100 S) [3] | percent of signal in aggregates (12-100 S relative to 5-100 S) [4] |
| --- | --- | --- | --- | --- |
| Helixate FS (recombinant full-length factor VIII), non-oxidized | 18.9% and 15.9% | 18.9% and 15.9% | 13.4 and 13.3% of the signal | 14.5 and 9.2% |
| Helixate FS (recombinant full-length factor VIII) oxidized with 80 uM ClO- | – | – | 13.4 and 13.3% of the signal | 14.5 and 9.2% |
